Laboratory results reported in patent publication US20200384080A1 (published 2020).

Key:
[1] = molecular target: T1, ALK4-Fc:ActRIIB-Fc heterodimer (human, UniProt P36896 24-126; Q13705 20-134); assay: Biacore, receptor captured by anti-Fc
T1 construct: also called ALK4-Fc:ActRIIB-Fc heterodimeric complex; ALK4:ActRIIB heterodimer; not shown: Linkers (TGGG on ALK4, GGG on ActRIIB) and the engineered Fc pair; They differ only in Fc substitutions
T1 sequence 1: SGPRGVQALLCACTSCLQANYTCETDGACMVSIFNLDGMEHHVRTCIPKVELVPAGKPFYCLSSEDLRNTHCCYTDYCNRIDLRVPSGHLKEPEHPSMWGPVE
T1 sequence 2: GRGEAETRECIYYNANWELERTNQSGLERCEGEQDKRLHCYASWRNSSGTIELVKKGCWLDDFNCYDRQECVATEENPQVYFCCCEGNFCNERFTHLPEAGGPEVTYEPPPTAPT
Experimental: (§1) A Biacore™-based binding assay was used to compare ligand binding selectivity of the ALK4-Fc:ActRIIB-Fc heterodimeric complex described above with that of ActRIIB-Fc and ALK4-Fc homodimer complexes. The ALK4-Fc:ActRIIB-Fc heterodimer, ActRIIB-Fc homodimer, and ALK4-Fc homodimer were independently captured onto the system using an anti-Fc antibody. Ligands were injected and allowed to flow over the captured receptor protein. Results are summarized in the table below, in which ligand off-rates (kd) most indicative of effective ligand traps are denoted in bold font.

[2] = molecular target: T2, GDF11 (UniProt O95390 299-407); assay: Biacore, receptor captured by anti-Fc; footnote: very low signal
T2 construct: also called BMP11
T2 sequence (looked up): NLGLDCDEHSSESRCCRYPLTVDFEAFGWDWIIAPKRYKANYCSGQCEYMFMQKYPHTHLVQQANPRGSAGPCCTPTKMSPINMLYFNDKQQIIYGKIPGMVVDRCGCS
Experimental: as §1

[3] = molecular target: T2, GDF11; assay: Biacore, receptor captured by anti-Fc
Experimental: as §1

[4] = molecular target: T3, activin A (UniProt P08476 311-426); assay: cell-based or functional assay
T3 sequence (looked up): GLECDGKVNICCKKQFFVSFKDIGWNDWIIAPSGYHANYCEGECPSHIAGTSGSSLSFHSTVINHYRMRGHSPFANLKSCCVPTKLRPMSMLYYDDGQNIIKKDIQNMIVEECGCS

[5] = molecular target: T2, GDF11; assay: cell-based or functional assay

B1: BMP6 (ligand, UniProt P22004 375-513, looked up)
chain: SASSRRRQQSRNRSTQSQDVARVSSASDYNSSELKTACRKHELYVSFQDLGWQDWIIAPKGYAANYCDGECSFPLNAHMNATNHAIVQTLVHLMNPEYVPKPCCAPTKLNAISVLYFDDNSNVILKKYRNMVVRACGCH
- Kd [1]: 2.7 nM
- koff [1]: 0.0055 s⁻¹
- kon [1]: 2e+06 M⁻¹ s⁻¹

B2: ALK4-Fc homodimer (Fc fusion)
chain: SGPRGVQALLCACTSCLQANYTCETDGACMVSIFNLDGMEHHVRTCIPKVELVPAGKPFYCLSSEDLRNTHCCYTDYCNRIDLRVPSGHLKEPEHPSMWGPVE
notes: not shown: linker and Fc of the homodimer not specified
- Kd [2]: 0.27 nM
- kon [3]: 4.8e+06 M⁻¹ s⁻¹

B3: ActRIIB-Fc A64 20-134 (Fc fusion)
chain: GRGEAETRECIYYNANWELERTNQSGLERCEGEQDKRLHCYASWANSSGTIELVKKGCWLDDFNCYDRQECVATEENPQVYFCCCEGNFCNERFTHLPEAGGPEVTYEPPPTAPTGGGTHTCPPCPAPELLGGPSVFLFPPKPKDTLMISRTPEVTCVVVDVSHEDPEVKFNWYVDGVEVHNAKTKPREEQYNSTYRVVSVLTVLHQDWLNGKEYKCKVSNKALPVPIEKTISKAKGQPREPQVYTLPPSREEMTKNQVSLTCLVKGFYPSDIAVEWESNGQPENNYKTTPPVLDSDGSFFLYSKLTVDKSRWQQGNVFSCSVMHEALHNHYTQKSLSLSPGK
- KI, cell-based assay [4]: ~1000 nM
- KI, cell-based assay [5]: ~1000 nM

B4: ActRIIB(20-134)-hFc (Fc fusion)
chain: GRGEAETRECIYYNANWELERTNQSGLERCEGEQDKRLHCYASWRNSSGTIELVKKGCWLDDFNCYDRQECVATEENPQVYFCCCEGNFCNERFTHLPEAGGPEVTYEPPPTAPTGGGTHTCPPCPAPELLGGPSVFLFPPKPKDTLMISRTPEVTCVVVDVSHEDPEVKFNWYVDGVEVHNAKTKPREEQYNSTYRVVSVLTVLHQDWLNGKEYKCKVSNKALPVPIEKTISKAKGQPREPQVYTLPPSREEMTKNQVSLTCLVKGFYPSDIAVEWESNGQPENNYKTTPPVLDSDGSFFLYSKLTVDKSRWQQGNVFSCSVMHEALHNHYTQKSLSLSPGK
- KI, cell-based assay [4]: ~10 nM
- KI, cell-based assay [5]: ~10 nM
